Assay results published in paper PMC7949108, “Medulloblastoma-associated mutations in the DEAD-box RNA helicase DDX3X/DED1 cause specific defects in translation”.

Assays:
Assay in all cases: fluorescence anisotropy; 2 mM ADP-BeFx; 20 mM HEPES pH 7.5, 40 mM NaCl, 20% glycerol, 2 mM ADP-BeFx; 2 nM RNA, 0-400 nM protein, 30 min; temperature not stated
Conditions in all cases: protein: recombinant; tags: His (pET28a); label: 5' 6-carboxyfluorescein; single strand
Ded1 wild-type = Ded1 wild-type (Saccharomyces cerevisiae, UniProt P06634 1-604)
Sequence of Ded1 wild-type (P06634 whole entry): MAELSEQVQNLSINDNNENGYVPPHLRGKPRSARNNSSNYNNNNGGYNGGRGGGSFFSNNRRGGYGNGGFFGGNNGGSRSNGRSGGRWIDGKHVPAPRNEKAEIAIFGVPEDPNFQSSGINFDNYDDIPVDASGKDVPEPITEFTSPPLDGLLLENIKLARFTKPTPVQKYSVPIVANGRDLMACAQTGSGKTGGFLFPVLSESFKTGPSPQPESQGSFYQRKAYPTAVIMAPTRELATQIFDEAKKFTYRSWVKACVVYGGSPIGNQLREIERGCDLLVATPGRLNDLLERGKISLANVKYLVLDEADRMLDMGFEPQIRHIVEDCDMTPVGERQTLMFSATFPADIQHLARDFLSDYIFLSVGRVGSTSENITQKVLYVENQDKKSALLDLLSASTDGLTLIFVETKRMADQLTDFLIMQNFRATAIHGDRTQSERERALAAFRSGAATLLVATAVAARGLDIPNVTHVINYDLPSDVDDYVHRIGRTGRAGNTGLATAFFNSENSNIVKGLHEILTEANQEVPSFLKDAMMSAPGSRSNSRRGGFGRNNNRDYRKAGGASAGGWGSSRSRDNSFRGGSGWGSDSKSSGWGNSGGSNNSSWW

Ded1-S371F = Ded1-S371F (Saccharomyces cerevisiae, UniProt P06634 1-604, S371F)
Sequence of Ded1-S371F (P06634 whole entry S371F): as the sequence (P06634 whole entry) above, with S371F counted along it

Ded1-G488A = Ded1-G488A (Saccharomyces cerevisiae, UniProt P06634 1-604, G488A)
Sequence of Ded1-G488A (P06634 whole entry G488A): as the sequence (P06634 whole entry) above, with G488A counted along it

Ded1-M339I = Ded1-M339I (Saccharomyces cerevisiae, UniProt P06634 1-604, M339I)
Sequence of Ded1-M339I (P06634 whole entry M339I): as the sequence (P06634 whole entry) above, with M339I counted along it

AGCACCGUAAAGACGC (ssRNA) [16-mer RNA oligomer] showed a Kd (Ded1 wild-type) of 13 nM, a Kd (Ded1-S371F) of 11 nM and a Kd (Ded1-G488A) of 78 nM. The Kd (Ded1-M339I) was 110 nM.
